How the values were obtained:
[1] = biological target: T1, M 2-EGFR (wild-type N-terminus FLAG-tagged EGF receptor) (human, UniProt P00533 25-1210); assay: Scatchard plot (B/F specific against Bound) of 125I-EGF binding to BaF/3 cells expressing wt EGFR, cold ligand titration, fitted with Radlig; first (high affinity) of two sites
T1 construct: whole, on cells; Stably expressed on BaF/3 cells; also called wt EGFR; wild type EGFR; not shown: N-terminal FLAG tag

[2] = biological target: T1, M 2-EGFR (wild-type N-terminus …); assay: Scatchard plot (B/F specific against Bound) of 125I-EGF binding to BaF/3 cells expressing wt EGFR, cold ligand titration, fitted with Radlig; second (low affinity) of two sites
[3] = biological target: T2, M 2-EGFR E 21A (human, UniProt P00533 25-1210); assay: Scatchard plot (B/F specific against Bound) of 125I-EGF binding to BaF/3 cells expressing E21A EGFR, cold ligand titration, fitted with Radlig; first (high affinity) of two sites
T2 construct: whole, on cells; Transiently expressed in 293 cells and stably expressed in BaF/3 cells; also called Glu 21Ala; not shown: N-terminal FLAG tag
Protocol: This was determined in total cell lysates by sequential immunoblotting with anti-phosphotyrosine (top) or anti-EGFR (bottom) antibodies. […] Cross-linking of the EGFR via the extracellular portion was performed at 37° C. to maximize dimer yield. Samples were analyzed by SDS-PAGE on 3-8% gradient gels and immunoblotting with anti-EGFR antibodies.
The isolation and characterisation of stably transfected cell lines expressing wild-type and mutant EGFRs was performed using the II3-dependent murine hemopoietic lineage BaF/3 (Walker et al, 1998, Growth Factors 16, 53-67). Expression vectors containing the appropriate EGFR constructs were transfected individually by electroporation using a Gene Pulser (BioRad) according to manufacturer's instructions. Neomycin-resistant pools were generated by selection in G 418, and cloned by limiting dilution to obtain stable cell lines.

[4] = biological target: T2, M 2-EGFR E 21A; assay: Scatchard plot (B/F specific against Bound) of 125I-EGF binding to BaF/3 cells expressing E21A EGFR, cold ligand titration, fitted with Radlig; second (low affinity) of two sites

Kd [1]: 0.039 nM
Kd [2]: 1.1 nM
Kd [3]: 0.045 nM
Kd [4]: 1.1 nM
B1: iodinated murine EGF (ligand, UniProt P01132 977-1029, looked up)
chain: NSYPGCPSSYDGYCLNGGVCMHIESLDSYTCNCVIGYSGDRCQTRDLRWWELR
modifications: 125I-iodinated (site not stated)
notes: mature; Unlabelled EGF was used for the cold titration

Source: US20040248196A1 (COMMONWEALTH SCIENTIFIC AND INDUSTRIAL RESEARCH ORGANISATION, published 2004)
